What all share (assay): SPR; no nucleotide or Mg2+ listed in running buffer; n = 2; SPR (BIACORE 3000): 20 mM Hepes-NaOH pH 7.5, 100 mM NaCl, 1 mM DTT, 0.005% Tween-20; 20 μl/min, 3 min association and 3 min dissociation; temperature not stated
Details in all cases: protein: recombinant; tags: C-terminal FLAG on xMsh6; copies: 1;1; label: 3' biotin on strand 1; blunt, A:C mismatch (A at strand 1 position 22, C in strand 2)
On the technique in general: SPR reads the build-up and loss of mass on a sensor chip optically.

The target in series [1] is xMutSα ΔN (xMsh2-xMsh6ΔN-FLAG) (Xenopus laevis, UniProt A0A1B4WRB1;A0A1B4WRB2 1-932;=M+324-1340, internal_change).
Series [2] has as its target xMutSα PIP (xMsh2-xMsh6PIP-FLAG) (Xenopus laevis, UniProt A0A1B4WRB1;A0A1B4WRB2 1-932;1-1340, Q4A;F10A;F11A).
In series [3] the target is xMutSα WT (xMsh2-xMsh6-FLAG) (Xenopus laevis, UniProt A0A1B4WRB1;A0A1B4WRB2 1-932;1-1340).

Our source for the Kd values is paper PMC4942255, “MutSα maintains the mismatch repair capability by inhibiting PCNA unloading”.

xMutSα WT (xMsh2-xMsh6-FLAG), sequence (chain, as listed by the source, chain 1 of 2): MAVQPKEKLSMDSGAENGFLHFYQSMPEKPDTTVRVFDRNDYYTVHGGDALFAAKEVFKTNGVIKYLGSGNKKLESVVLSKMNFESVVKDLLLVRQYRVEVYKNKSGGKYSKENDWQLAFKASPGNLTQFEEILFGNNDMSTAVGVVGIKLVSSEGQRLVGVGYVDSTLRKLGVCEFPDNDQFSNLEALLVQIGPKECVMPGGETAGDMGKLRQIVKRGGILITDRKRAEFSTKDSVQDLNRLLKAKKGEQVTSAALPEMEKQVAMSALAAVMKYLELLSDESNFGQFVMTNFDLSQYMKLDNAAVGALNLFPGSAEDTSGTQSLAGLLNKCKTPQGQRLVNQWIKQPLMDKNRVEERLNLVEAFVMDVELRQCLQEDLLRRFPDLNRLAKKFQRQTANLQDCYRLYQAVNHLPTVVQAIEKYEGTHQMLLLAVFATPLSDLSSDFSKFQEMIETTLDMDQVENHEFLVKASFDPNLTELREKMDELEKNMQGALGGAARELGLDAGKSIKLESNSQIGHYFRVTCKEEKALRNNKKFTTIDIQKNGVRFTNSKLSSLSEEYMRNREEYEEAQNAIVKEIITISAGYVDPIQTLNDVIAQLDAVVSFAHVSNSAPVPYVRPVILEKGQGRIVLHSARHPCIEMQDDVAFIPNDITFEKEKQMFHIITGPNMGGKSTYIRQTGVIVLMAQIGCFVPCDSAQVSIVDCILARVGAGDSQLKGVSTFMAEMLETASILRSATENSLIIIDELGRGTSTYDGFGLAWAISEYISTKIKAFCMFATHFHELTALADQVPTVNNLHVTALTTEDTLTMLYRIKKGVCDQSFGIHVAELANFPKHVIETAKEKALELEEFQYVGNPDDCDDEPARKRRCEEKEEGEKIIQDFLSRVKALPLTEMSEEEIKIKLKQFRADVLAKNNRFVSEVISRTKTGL
xMutSα WT (xMsh2-xMsh6-FLAG), sequence (chain, as listed by the source, chain 2 of 2): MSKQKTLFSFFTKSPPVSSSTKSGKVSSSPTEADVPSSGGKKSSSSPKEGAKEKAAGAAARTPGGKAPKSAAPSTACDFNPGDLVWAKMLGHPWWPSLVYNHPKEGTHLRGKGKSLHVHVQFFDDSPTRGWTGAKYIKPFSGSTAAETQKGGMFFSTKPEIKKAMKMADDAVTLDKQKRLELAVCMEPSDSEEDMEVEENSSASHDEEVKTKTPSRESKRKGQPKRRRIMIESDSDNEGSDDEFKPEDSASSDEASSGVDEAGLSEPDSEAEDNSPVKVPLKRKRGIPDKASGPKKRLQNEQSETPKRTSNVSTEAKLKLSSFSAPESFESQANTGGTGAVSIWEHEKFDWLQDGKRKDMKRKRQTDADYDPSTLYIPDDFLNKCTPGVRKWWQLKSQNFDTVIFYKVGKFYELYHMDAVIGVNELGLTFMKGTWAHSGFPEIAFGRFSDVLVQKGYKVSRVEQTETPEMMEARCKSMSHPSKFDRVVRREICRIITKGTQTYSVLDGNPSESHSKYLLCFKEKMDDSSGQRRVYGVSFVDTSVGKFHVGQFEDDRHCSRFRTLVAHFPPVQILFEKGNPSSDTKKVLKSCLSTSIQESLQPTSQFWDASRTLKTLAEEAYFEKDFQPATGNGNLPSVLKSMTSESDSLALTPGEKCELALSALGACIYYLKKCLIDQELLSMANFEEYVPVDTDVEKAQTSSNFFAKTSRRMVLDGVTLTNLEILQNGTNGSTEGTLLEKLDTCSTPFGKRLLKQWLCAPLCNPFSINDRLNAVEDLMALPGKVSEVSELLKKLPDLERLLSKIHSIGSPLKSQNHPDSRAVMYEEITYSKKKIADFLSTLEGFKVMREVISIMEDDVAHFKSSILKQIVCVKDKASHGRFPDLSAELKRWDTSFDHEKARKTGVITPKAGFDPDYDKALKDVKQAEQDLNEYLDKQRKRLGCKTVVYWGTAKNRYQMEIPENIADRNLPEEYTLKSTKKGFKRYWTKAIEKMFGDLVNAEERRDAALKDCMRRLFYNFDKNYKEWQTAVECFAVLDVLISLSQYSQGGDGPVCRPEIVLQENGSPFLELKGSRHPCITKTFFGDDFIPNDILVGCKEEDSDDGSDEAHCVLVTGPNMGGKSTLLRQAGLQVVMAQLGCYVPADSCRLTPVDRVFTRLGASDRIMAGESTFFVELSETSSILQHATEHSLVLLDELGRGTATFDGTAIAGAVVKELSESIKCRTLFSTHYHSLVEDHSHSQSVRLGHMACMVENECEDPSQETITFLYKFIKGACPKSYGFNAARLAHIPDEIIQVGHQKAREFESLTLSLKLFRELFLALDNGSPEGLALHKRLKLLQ
xMutSα PIP (xMsh2-xMsh6PIP-FLAG), sequence (chain, as listed by the source Q4A;F10A;F11A, chain 1 of 2): as the sequence (chain, as listed by the source, chain 1 of 2) above
xMutSα PIP (xMsh2-xMsh6PIP-FLAG), sequence (chain, as listed by the source Q4A;F10A;F11A, chain 2 of 2): as the sequence (chain, as listed by the source, chain 2 of 2) above, with Q4A, F10A, F11A counted along it

B1: 42 bp A:C mismatch oligo DNA (dsDNA)
DNA 1: GGGTGACCGTACTGCATCTCGAGATCCATGTTACTGCGTCAG
DNA 2: CTGACGCAGTAACATGGATCCCGAGATGCAGTACGGTCACCC
For orientation: Kd means the constant that tells how readily two partners part at equilibrium. For B1, the Kd in series [1] came to 3.6 nM; in series [2], 4.4 nM; in series [3], 2.2 nM.
